# From patent US20170306033A1 (Amgen, published 2017)
# B1: iPS:327682 (bispecific antibody, human IgG1, kappa, N297G)
# light 1: not shown
# heavy 1: not shown
# light 2: EIVLTQSPGTLSLSPGERATLSCRASQSVSSGYLTWYQQKPGQAPRLLIYGASSRATGIPDRFSGSGSGTDFTLTISRLEPEDFAVYYCQQYGNSLSRFGKGTKLEIKRTVAAPSVFIFPPSDEQLKSGTASVVCLLNNFYPREAKVQWKVDNALQSGNSQESVTEQDSKDSTYSLKSTLTLSKADYEKHKVYACEVTHQGLSSPVTKSFNRGEC
# heavy 2: QVQLVESGGGVVQPGRSLRLSCAASGFTFSSYGMHWVRQAPGKELEWVAVIWYDGSNKYYAESVKGRFIISRDKSKNTLYLQMNSLRAEDTAVYYCARAGGIAAAGLYYYYGMDVWGQGTTVTVSSASTKGPSVFPLAPSSKSTSGGTAALGCLVKDYFPEPVTVSWNSGALTSGVHTFPAVLQSSGLYSLESVVTVPSSSLGTQTYICNVNHKPSNTKVDKKVEPKSCDKTHTCPPCPAPELLGGPSVFLFPPKPKDTLMISRTPEVTCVVVDVSHEDPEVKFNWYVDGVEVHNAKTKPCEEQYGSTYRCVSVLTVLHQDWLNGKEYKCKVSNKALPAPIEKTISKAKGQPREPQVYTLPPSRKEMTKNQVSLTCLVKGFYPSDIAVEWESNGQPENNYKTTPPVLKSDGSFFLYSKLTVDKSRWQQGNVFSCSVMHEALHNHYTQKSLSLSPGK
# B2: iPS:327685 (bispecific antibody, human IgG1, kappa, N297G)
# light 1: not shown
# heavy 1: not shown
# light 2: EIVLTQSPGTLSLSPGERATLSCRASQSVSSGYLTWYQQKPGQAPRLLIYGASSRATGIPDRFSGSGSGTDFTLTISRLEPEDFAVYYCQQYGNSLSRFGQGTKLEIKRTVAAPSVFIFPPSDEQLKSGTASVVCLLNNFYPREAKVQWKVDNALQSGNSQESVTEQDSKDSTYSLKSTLTLSKADYEKHKVYACEVTHQGLSSPVTKSFNRGEC
# heavy 2: not shown
# B3: iPS:327677 (bispecific antibody, human IgG1, kappa, N297G)
# light 1: not shown
# heavy 1: not shown
# light 2: EIVLTQSPGTLSLSPGERATLSCRASQSVSSGYLTWYQQKPGQAPRLLIYGASSRATGIPDRFSGSGSGTDFTLTISRLEPEDFAVYYCQQYGNSLSRFGQGTKLEIKRTVAAPSVFIFPPSDEQLKSGTASVVCLLNNFYPREAKVQWKVDNALQSGNSQESVTEQDSKDSTYSLKSTLTLSKADYEKHKVYACEVTHQGLSSPVTKSFNRGEC
# heavy 2: not shown
# B4: iPS:327678 (bispecific antibody, human IgG1, kappa, N297G)
# light 1: not shown
# heavy 1: not shown
# light 2: EIVLTQSPGTLSLSPGERATLSCRASQSVSSGYLTWYQQKPGQAPRLLIYGASSRATGIPDRFSGSGSGTDFTLTISRLEPEDFAVYYCQQYGNSLSRFGQGTKLEIKRTVAAPSVFIFPPSDEQLKSGTASVVCLLNNFYPREAKVQWKVDNALQSGNSQESVTEQDSKDSTYSLKSTLTLSKADYEKHKVYACEVTHQGLSSPVTKSFNRGEC
# heavy 2: not shown
# B5: iPS:327683 (bispecific antibody, human IgG1, kappa, N297G)
# light 1: DIQLTQSPSFLSASVGDRVTITCRASQSIGRSLHWYQQKPGKAPKLLIKYASQSLSGVPSRFSGSGSGTEFTLTISSLQPEDFATYYCHQSSRLPFTFGEGTKVDIKRTVAAPSVFIFPPSDEQLKSGTASVVCLLNNFYPREAKVQWKVDNALQSGNSQESVTEQDSKDSTYSLESTLTLSKADYEKHKVYACEVTHQGLSSPVTKSFNRGEC
# heavy 1: not shown
# light 2: EIVLTQSPGTLSLSPGERATLSCRASQSVSSGYLTWYQQKPGQAPRLLIYGASSRATGIPDRFSGSGSGTDFTLTISRLEPEDFAVYYCQQYGNSLSRFGKGTKLEIKRTVAAPSVFIFPPSDEQLKSGTASVVCLLNNFYPREAKVQWKVDNALQSGNSQESVTEQDSKDSTYSLKSTLTLSKADYEKHKVYACEVTHQGLSSPVTKSFNRGEC
# heavy 2: QVQLVESGGGVVQPGRSLRLSCAASGFTFSSYGMHWVRQAPGKELEWVAVIWYDGSNKYYAESVKGRFIISRDKSKNTLYLQMNSLRAEDTAVYYCARAGGIAAAGLYYYYGMDVWGQGTTVTVSSASTKGPSVFPLAPSSKSTSGGTAALGCLVKDYFPEPVTVSWNSGALTSGVHTFPAVLQSSGLYSLESVVTVPSSSLGTQTYICNVNHKPSNTKVDKKVEPKSCDKTHTCPPCPAPELLGGPSVFLFPPKPKDTLMISRTPEVTCVVVDVSHEDPEVKFNWYVDGVEVHNAKTKPCEEQYGSTYRCVSVLTVLHQDWLNGKEYKCKVSNKALPAPIEKTISKAKGQPREPQVYTLPPSRKEMTKNQVSLTCLVKGFYPSDIAVEWESNGQPENNYKTTPPVLKSDGSFFLYSKLTVDKSRWQQGNVFSCSVMHEALHNHYTQKSLSLSPGK
# B6: iPS:327291 (bispecific antibody, human IgG1, kappa, lambda, N297G)
# light 1: EIVLTQSPATLSLSPGERATLSCRASQSVGRSLHWYQQKPGQAPRLLIKYASQSLSGIPARFSGSGSGTDFTLTISSLEPEDFAVYYCHQSSRLPFTFGPGTKVDIKRTVAAPSVFIFPPSDEQLKSGTASVVCLLNNFYPREAKVQWKVDNALQSGNSQESVTEQDSKDSTYSLESTLTLSKADYEKHKVYACEVTHQGLSSPVTKSFNRGEC
# heavy 1: not shown
# light 2: QSVLTQPPSVSAAPGQKVTISCSGSSSNIGNNYVSWYQQLPGTAPKLLIYDNNKRPSGIPDRFSGSKSGTSTTLGITGLQTGDEADYYCGTWDSRLSAVVFGGGTKLTVLGQPKANPTVTLFPPSSEELQANKATLVCLISDFYPGAVTVAWKADGSPVKAGVETTKPSKQSNNKYAAKSYLSLTPEQWKSHRSYSCQVTHEGSTVEKTVAPTECS
# heavy 2: QVQLVESGGGVVQPGRSLRLSCAASGFTFSSFGMHWVRQAPGKGLEWVAVISFDGSIKYSVDSVKGRFTISRDNSKNTLFLQMNSLRAEDTAVYYCARDRLNYYDSSGYYHYKYYGMAVWGQGTTVTVSSASTKGPSVFPLAPSSKSTSGGTAALGCLVKDYFPEPVTVSWNSGALTSGVHTFPAVLQSSGLYSLESVVTVPSSSLGTQTYICNVNHKPSNTKVDKKVEPKSCDKTHTCPPCPAPELLGGPSVFLFPPKPKDTLMISRTPEVTCVVVDVSHEDPEVKFNWYVDGVEVHNAKTKPCEEQYGSTYRCVSVLTVLHQDWLNGKEYKCKVSNKALPAPIEKTISKAKGQPREPQVYTLPPSRKKMTKNQVSLTCLVKGFYPSDIAVEWESNGQPENNYKTTPPVLKSDGSFFLYSKLTVDKSRWQQGNVFSCSVMHEALHNHYTQKSLSLSPGK
# B7: iPS:327684 (bispecific antibody, human IgG1, kappa, N297G)
# light 1: EIVLTQSPATLSLSPGERATLSCRASQSVGRSLHWYQQKPGQAPRLLIKYASQSLSGIPARFSGSGSGTDFTLTISSLEPEDFAVYYCHQSSRLPFTFGEGTKVDIKRTVAAPSVFIFPPSDEQLKSGTASVVCLLNNFYPREAKVQWKVDNALQSGNSQESVTEQDSKDSTYSLESTLTLSKADYEKHKVYACEVTHQGLSSPVTKSFNRGEC
# heavy 1: not shown
# light 2: EIVLTQSPGTLSLSPGERATLSCRASQSVSSGYLTWYQQKPGQAPRLLIYGASSRATGIPDRFSGSGSGTDFTLTISRLEPEDFAVYYCQQYGNSLSRFGKGTKLEIKRTVAAPSVFIFPPSDEQLKSGTASVVCLLNNFYPREAKVQWKVDNALQSGNSQESVTEQDSKDSTYSLKSTLTLSKADYEKHKVYACEVTHQGLSSPVTKSFNRGEC
# heavy 2: QVQLVESGGGVVQPGRSLRLSCAASGFTFSSYGMHWVRQAPGKELEWVAVIWYDGSNKYYAESVKGRFIISRDKSKNTLYLQMNSLRAEDTAVYYCARAGGIAAAGLYYYYGMDVWGQGTTVTVSSASTKGPSVFPLAPSSKSTSGGTAALGCLVKDYFPEPVTVSWNSGALTSGVHTFPAVLQSSGLYSLESVVTVPSSSLGTQTYICNVNHKPSNTKVDKKVEPKSCDKTHTCPPCPAPELLGGPSVFLFPPKPKDTLMISRTPEVTCVVVDVSHEDPEVKFNWYVDGVEVHNAKTKPCEEQYGSTYRCVSVLTVLHQDWLNGKEYKCKVSNKALPAPIEKTISKAKGQPREPQVYTLPPSRKEMTKNQVSLTCLVKGFYPSDIAVEWESNGQPENNYKTTPPVLKSDGSFFLYSKLTVDKSRWQQGNVFSCSVMHEALHNHYTQKSLSLSPGK
# Legend:
# human PAC1 receptor = biological target: T1, human PAC1 receptor (human, UniProt P41586 21-468); assay: cell-based or functional assay
# T1 sequence: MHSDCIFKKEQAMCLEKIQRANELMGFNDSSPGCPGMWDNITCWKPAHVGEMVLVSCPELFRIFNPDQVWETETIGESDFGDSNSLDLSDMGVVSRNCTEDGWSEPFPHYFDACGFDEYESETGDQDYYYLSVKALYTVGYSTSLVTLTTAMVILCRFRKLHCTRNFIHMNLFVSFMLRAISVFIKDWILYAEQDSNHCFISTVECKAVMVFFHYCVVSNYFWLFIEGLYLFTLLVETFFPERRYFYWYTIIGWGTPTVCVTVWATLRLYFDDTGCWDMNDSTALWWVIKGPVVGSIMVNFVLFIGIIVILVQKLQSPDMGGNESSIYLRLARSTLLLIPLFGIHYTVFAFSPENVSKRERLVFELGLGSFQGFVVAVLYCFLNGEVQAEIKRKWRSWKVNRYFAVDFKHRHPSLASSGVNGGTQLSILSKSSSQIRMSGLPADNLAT
# human CGRP receptor = human CGRP receptor (human, UniProt Q16602 23-461; O60894 27-148); assay: cell-based or functional assay
# Chain of human CGRP receptor (Q16602 23-461 limits assumed, chain 1 of 2): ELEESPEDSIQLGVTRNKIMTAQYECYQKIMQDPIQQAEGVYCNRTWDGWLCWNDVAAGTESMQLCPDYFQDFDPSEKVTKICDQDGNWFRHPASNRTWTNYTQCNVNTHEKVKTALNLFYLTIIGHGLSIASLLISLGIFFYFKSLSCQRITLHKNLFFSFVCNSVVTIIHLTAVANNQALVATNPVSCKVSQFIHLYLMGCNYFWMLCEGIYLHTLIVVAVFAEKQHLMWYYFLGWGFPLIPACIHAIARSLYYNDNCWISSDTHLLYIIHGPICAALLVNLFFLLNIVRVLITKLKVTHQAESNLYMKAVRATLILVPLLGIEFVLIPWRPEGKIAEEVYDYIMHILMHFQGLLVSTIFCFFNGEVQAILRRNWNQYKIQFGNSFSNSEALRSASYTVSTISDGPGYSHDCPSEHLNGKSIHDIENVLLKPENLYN
# Chain of human CGRP receptor (O60894 27-148 limits assumed, chain 2 of 2): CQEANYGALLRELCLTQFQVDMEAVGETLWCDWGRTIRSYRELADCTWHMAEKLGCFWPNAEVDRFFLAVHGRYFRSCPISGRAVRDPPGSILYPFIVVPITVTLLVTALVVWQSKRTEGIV
Binder,% inhibition of human PAC1 (human PAC1 receptor) [%],% inhibition of human CGRPR (human CGRP receptor) [%]
B1,12,75
B2,85,86
B3,43,81
B4,43,84
B5,30,70
B6,89,70
B7,74,71
